B1: Pr112 (dsDNA)
DNA 1: ATATTTTAGTTATATTTTTGATAGAAAATATTTTATCGTGTATAATACTACTTATAAATAAGAATAAAAATAAAGAGCTTGTTTGGAGGAATTTTAATAA
DNA 2: TTATTAAAATTCCTCCAAACAAGCTCTTTATTTTTATTCTTATTTATAAGTAGTATTATACACGATAAAATATTTTCTATCAAAAATATAACTAAAATAT
B2: Pr33 (dsDNA)
DNA 1: GAGTACTATGTATTATTATAGTAAATATAAGTACTATACATTATAGAGTAGTAG
DNA 2: CTACTACTCTATAATGTATAGTACTTATATTTACTATAATAATACATAGTACTC
B3: Pr122 (dsDNA)
DNA 1: TAGAGTACTATGTATTATTATAGTAAATAT
DNA 2: ATATTTACTATAATAATACATAGTACTCTA
B4: Pr104 (dsDNA)
DNA 1: AGGTGAATGAAACAAAAGATGTCATGATAAGTCATGTAAAACAATAGTTT
DNA 2: AAACTATTGTTTTACATGACTTATCATGACATCTTTTGTTTCATTCACCT
B5: Pr121 (dsDNA)
DNA 1: AAGCTACCTTGCATAAATATCTTGGATAGTATATTGATTATATAATCAGTAAATGTTATACTTTTCATGACGATAAAAACATTTTAGTCATAAGGGGGTT
DNA 2: AACCCCCTTATGACTAAAATGTTTTTATCGTCATGAAAAGTATAACATTTACTGATTATATAATCAATATACTATCCAAGATATTTATGCAAGGTAGCTT
B6: Pr34 (dsDNA)
DNA 1: TTTGATGAAAAAAATGTTACAATATTTAATATTGAAAATGGCGATGTTATTAGCATAGAGAATGGAGGAAATTAAATGAAACAAGAATACGGTGCAAGTC
DNA 2: GACTTGCACCGTATTCTTGTTTCATTTAATTTCCTCCATTCTCTATGCTAATAACATCGCCATTTTCAATATTAAATATTGTAACATTTTTTTCATCAAA
B7: Pr29 (dsDNA)
DNA 1: TAAACCTTGTATTATAGAGTACTATGTATTATTATAGTAAATATAAGTACTATACATTATAGAG
DNA 2: CTCTATAATGTATAGTACTTATATTTACTATAATAATACATAGTACTCTATAATACAAGGTTTA
B8: Pr97 (dsDNA)
DNA 1: TTACTTATATAATGATAAATTTTAGGAG
DNA 2: CTCCTAAAATTTATCATTATATAAGTAA
B9: Pr30 (dsDNA)
DNA 1: TATAGTAAATATAAGTACTATACATTATAGAGTAGTAGGTGAAAAGGCGGTGGTACATAATGCAGTTA
DNA 2: TAACTGCATTATGTACCACCGCCTTTTCACCTACTACTCTATAATGTATAGTACTTATATTTACTATA
B10: Pr42 (dsDNA)
DNA 1: CTATACATTATAG
DNA 2: CTATAATGTATAG
B11: Pr105 (dsDNA)
DNA 1: AAAAGATGTCATGATAAGTCATGTAA
DNA 2: TTACATGACTTATCATGACATCTTTT
B12: Pr27 (PcdpadR1) (dsDNA)
DNA 1: TAAACCTTGTATTATAGAGTACTATGTATTATTATAGTAAATATAAGTACTATACATTATAGAGTAGTAGGTGAAAAGGCGGTGGTACATAATGCAGTTA
DNA 2: TAACTGCATTATGTACCACCGCCTTTTCACCTACTACTCTATAATGTATAGTACTTATATTTACTATAATAATACATAGTACTCTATAATACAAGGTTTA
B13: Pr43 (dsDNA)
DNA 1: CTATGTATTATTATAGTAAATATAAGTACTATACATTA
DNA 2: TAATGTATAGTACTTATATTTACTATAATAATACATAG
B14: Pr111 (dsDNA)
DNA 1: ATATAGGAAATATAGAACAGATTTTCCAAGAAATCTAAATATTCTATGACCACGTGAATTGCTATGCACACATGTTGATAATCCATATTTTAAATCTAAA
DNA 2: TTTAGATTTAAAATATGGATTATCAACATGTGTGCATAGCAATTCACGTGGTCATAGAATATTTAGATTTCTTGGAAAATCTGTTCTATATTTCCTATAT
B15: Pr32 (dsDNA)
DNA 1: TGTATTATAGAGTACTATGTATTATTATAGTAAATATAAGTACTATACATTATAGAGTAGTAGG
DNA 2: CCTACTACTCTATAATGTATAGTACTTATATTTACTATAATAATACATAGTACTCTATAATACA
B16: Pr35 (dsDNA)
DNA 1: CATTTAAAGAATGGGATATTATGTAATTGTAGATTATGTAGGTTTAAATTATTTATTTTTGTTTTAGCAAATTCTATGAATAGAAGGGGTTTGATTATGG
DNA 2: CCATAATCAAACCCCTTCTATTCATAGAATTTGCTAAAACAAAAATAAATAATTTAAACCTACATAATCTACAATTACATAATATCCCATTCTTTAAATG
B17: Pr41 (dsDNA)
DNA 1: TACTATACATTATAGAGTAGTA
DNA 2: TACTACTCTATAATGTATAGTA
B18: Pr69 (dsDNA)
DNA 1: ATGCTATAATTTTATCACTATGGTACTATATTACAATAATGCACTTTTTTGTAATATAGTATCTAAAAAGATACTTTAAAATAAATAAAGGAGCTCAAAA
DNA 2: TTTTGAGCTCCTTTATTTATTTTAAAGTATCTTTTTAGATACTATATTACAAAAAAGTGCATTATTGTAATATAGTACCATAGTGATAAAATTATAGCAT
B19: Pr114 (dsDNA)
DNA 1: ATATTTTATAATTAATAATTGTAATGCCGCACAGTAAAGGTTTAAATCTTCAAATGAAGTACCTTGTACTGGCGAGTTTGAGGCCGAGGAGGTGTATTTA
DNA 2: TAAATACACCTCCTCGGCCTCAAACTCGCCAGTACAAGGTACTTCATTTGAAGATTTAAACCTTTACTGTGCGGCATTACAATTATTAATTATAAAATAT
B20: Pr120 (dsDNA)
DNA 1: TTTTTATTCCTCCCTTTTTATTTATTAAAATTTATTATATTTTTCTATGATTCACTTAATTAAATTTCTCCATCTACAATTTTTCCATCTACAGATATAG
DNA 2: CTATATCTGTAGATGGAAAAATTGTAGATGGAGAAATTTAATTAAGTGAATCATAGAAAAATATAATAAATTTTAATAAATAAAAAGGGAGGAATAAAAA
B21: Pr106 (dsDNA)
DNA 1: AAAATTTATCATTATATAAGTAACATAC
DNA 2: GTATGTTACTTATATAATGATAAATTTT
B22: Pr48 (PnorV) (dsDNA)
DNA 1: TTTTAACCCTCCTAAAATTTATCATTATATAAGTAACATACCCAATTTTGAGGTGAATGAAACAAAAGATGTCATGATAAGTCATGTAAAACAATAGTTT
DNA 2: AAACTATTGTTTTACATGACTTATCATGACATCTTTTGTTTCATTCACCTCAAAATTGGGTATGTTACTTATATAATGATAAATTTTAGGAGGGTTAAAA
B23: Pr67 (dsDNA)
DNA 1: AGTACTATACATTATAGAGTAGT
DNA 2: ACTACTCTATAATGTATAGTACT
B24: Pr95 (dsDNA)
DNA 1: TAAAATTTATCATTATATAAGTAA
DNA 2: TTACTTATATAATGATAAATTTTA
B25: Pr31 (dsDNA)
DNA 1: AATATAAGTACTATACATTATAGAGTAGTAGGTGAAAAGGCGGTGGTACATAATGCAGTTA
DNA 2: TAACTGCATTATGTACCACCGCCTTTTCACCTACTACTCTATAATGTATAGTACTTATATT
B26: Pr53 (dsDNA)
DNA 1: AATATAAGTACTATACATTATAGAG
DNA 2: CTCTATAATGTATAGTACTTATATT
B27: Pr102 (dsDNA)
DNA 1: TTTTAACCCTCCTAAAATTTATCATTATATAAGTAACATACCCAATTTTG
DNA 2: CAAAATTGGGTATGTTACTTATATAATGATAAATTTTAGGAGGGTTAAAA
B28: Pr88 (dsDNA)
DNA 1: GTACTATGTATTATTATAGTAA
DNA 2: TTACTATAATAATACATAGTAC
B29: Pr68 (dsDNA)
DNA 1: GTACTATACATTATAGAGTAG
DNA 2: CTACTCTATAATGTATAGTAC
B30: Pr94 (dsDNA)
DNA 1: AATGAAACAAAAGATGTCATG
DNA 2: CATGACATCTTTTGTTTCATT
B31: Pr103 (dsDNA)
DNA 1: TATATAAGTAACATACCCAATTTTGAGGTGAATGAAACAAAAGATGTCAT
DNA 2: ATGACATCTTTTGTTTCATTCACCTCAAAATTGGGTATGTTACTTATATA
B32: Pr54 (dsDNA)
DNA 1: GTAAATATAAGTACTATACATTATAGAGTAG
DNA 2: CTACTCTATAATGTATAGTACTTATATTTAC
B33: Pr96 (dsDNA)
DNA 1: AAGTAACATACCCAATTTTGAGGT
DNA 2: ACCTCAAAATTGGGTATGTTACTT
B34: Pr70 (dsDNA)
DNA 1: TTATTTACCCCCTATTGTTTTATTAGGCTAAGTTGATGATTTATTTAACCTATGCTATAATTTTATCACTATGGTACTATATTACAATAATGCACTTTTT
DNA 2: AAAAAGTGCATTATTGTAATATAGTACCATAGTGATAAAATTATAGCATAGGTTAAATAAATCATCAACTTAGCCTAATAAAACAATAGGGGGTAAATAA

Biological target: cdPadR1 (Clostridium difficile R20291, UniProt A0A9R0CDW8 1-109)
Experiment: EMSA; 20 mM Tris pH 8.0, 120 mM KCl, 10 mM MgCl2, 5 mM DTT, 12.5% glycerol, 125 ug/mL heparin, room temperature
Conditions: protein: recombinant; tags: N-terminal Strep II; chain copies: 2

Row | Binder | binding result
1 | B1 | binds
2 | B2 | binds
3 | B3 | binds
4 | B4 | binds
5 | B5 | binds
6 | B6 | binds
7 | B7 | binds
8 | B8 | no binding
9 | B9 | binds
10 | B10 | no binding
11 | B11 | no binding
12 | B12 | binds
13 | B13 | no binding
14 | B14 | binds
15 | B15 | binds
16 | B16 | binds
17 | B17 | binds

Row | Binder | binding result
18 | B18 | binds
19 | B19 | no binding
20 | B20 | binds
21 | B21 | no binding
22 | B22 | binds
23 | B23 | binds
24 | B24 | no binding
25 | B25 | binds
26 | B26 | no binding
27 | B27 | binds
28 | B28 | no binding
29 | B29 | binds
30 | B30 | no binding
31 | B31 | no binding
32 | B32 | binds
33 | B33 | no binding
34 | B34 | binds

— PMC5050560
